Measurements taken from the supplement of paper PMC12042874.
± gives the uncertainty stated by the source.

Experiment: amyloid nucleation score (Sup35N fusion, yeast selection) (log enrichment); library NNK1; higher = more nucleation; inactive = no reads after selection
Procedure, shortened: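 For the nucleation score, DiMSum gave the log enrichment of output over input reads, centred on the mode score of non-aggregating sequences. Psi-negative yeast expressing Sup35N fused to peptides of 20 random codons were induced with 100 μM copper sulfate for 24 hours and grown 7 days at 30°C on medium lacking adenine and uracil. Input and output plasmid inserts were Illumina-sequenced, and sequences with under 100 input reads were excluded.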

Q: For CSLLSYK, which amyloid nucleation score is on record?
A: -1.63 ± 2.7

Q: With GFVTKDWLSVMRYIYQMLTS as the substance, how does the amyloid nucleation score read?
A: -0.016 ± 0.4

Q: With DRRMSTTVMGRFVWRDRYVG as the substance, how does the amyloid nucleation score read?
A: 0.526 ± 0.65

Q: For RFLSMWSHCQLMF, which amyloid nucleation score is on record?
A: inactive

Q: With NRIKWVKRFSIPFLTWYEDW as the substance, how does the amyloid nucleation score read?
A: 0.499 ± 0.53

Q: For RNVCIIVVSEW, which amyloid nucleation score is on record?
A: 6.589 ± 0.056

Q: Which amyloid nucleation score does the source give for NFTIDKRNAMLCVGRLYRSF here?
A: 1.05 ± 0.5

Q: Which amyloid nucleation score does the source give for RYYVSSLRPVRRQSRKDGCG here?
A: -0.414 ± 0.63

Q: Which amyloid nucleation score does the source give for CRVMEKIEVCYIRYFFSWLD here?
A: 0.574 ± 0.39

Q: Which amyloid nucleation score does the source give for NYFEKR here?
A: -0.261 ± 0.47

Q: Which amyloid nucleation score does the source give for APHTTTLTRKSFDNGCGGFG here?
A: 0.001 ± 0.38

Q: With IWILYLAFIVHKNVLLPRVL as the substance, how does the amyloid nucleation score read?
A: 0.123 ± 0.49

Q: Which amyloid nucleation score does the source give for LCFLTSIQCTALLDHQLVPR here?
A: 6.17 ± 0.079

Q: Which amyloid nucleation score does the source give for ITGPIEGGVTK here?
A: -0.118 ± 0.8

Q: For ELIIRTRLAVEELLMKACFV, which amyloid nucleation score is on record?
A: -0.498 ± 0.39

Q: With YVSAGRCKYDDLPTRV as the substance, how does the amyloid nucleation score read?
A: 0.133 ± 0.67

Q: Which amyloid nucleation score does the source give for ALSEFIFGLWLSFLIPRYMW here?
A: 1.21 ± 0.56

Q: For CRQGMTLAVREPGASTSVYN, which amyloid nucleation score is on record?
A: 0.47 ± 0.71

Q: With FGGWNYYYLAVQYIFLDTGV as the substance, how does the amyloid nucleation score read?
A: 2.45 ± 0.15

Q: With CRYTITFLVQKYLLDFFA as the substance, how does the amyloid nucleation score read?
A: -0.074 ± 0.35

Q: Which amyloid nucleation score does the source give for PDHLTIQSCDARYGFASQL here?
A: 1.78 ± 0.47

Q: Which amyloid nucleation score does the source give for EDDLN here?
A: 0.271 ± 0.38

Q: Which amyloid nucleation score does the source give for RADIKAIMLNYMIFA here?
A: inactive

Q: With YVGSRSAVNIGIICGSRLNE as the substance, how does the amyloid nucleation score read?
A: -0.739 ± 1.5

Q: Which amyloid nucleation score does the source give for KYRDLGSFMQSWAARHGTLL here?
A: -0.226 ± 0.68

Q: For SKKSSRDLNSTSGRR, which amyloid nucleation score is on record?
A: -0.808 ± 1.4

Q: Which amyloid nucleation score does the source give for FGREPIRIKTYQSLKNRSLI here?
A: -0.013 ± 0.24

Q: For NSPGYDQVNAYVGFKRRTMS, which amyloid nucleation score is on record?
A: 0.128 ± 0.64

Q: For LRMNLSRKPANFCFKCIIGK, which amyloid nucleation score is on record?
A: -0.348 ± 0.5

Q: For FGLIKWWDGVWWLSDLRRLH, which amyloid nucleation score is on record?
A: 0.979 ± 0.65

Q: With LDINDTMYETNCFG as the substance, how does the amyloid nucleation score read?
A: -0.488 ± 0.58

Q: With YFSLSVIREVCFFVPWKLRS as the substance, how does the amyloid nucleation score read?
A: 0.14 ± 0.43

Q: For FWVFAITFTAERKLQADDLF, which amyloid nucleation score is on record?
A: 1.84 ± 0.15

Q: Which amyloid nucleation score does the source give for SWVGRAVVEYSARARASTES here?
A: -0.327 ± 0.33

Q: Which amyloid nucleation score does the source give for PTIKRGTVGFNWVGRACSGK here?
A: -0.529 ± 0.57

Q: With FVLRLS as the substance, how does the amyloid nucleation score read?
A: inactive

Q: For TFVDGGSFSENVVVMIRFYH, which amyloid nucleation score is on record?
A: 4.99 ± 0.064

Q: Which amyloid nucleation score does the source give for GMMHYRFLIFFWYTSRTAYW here?
A: -0.355 ± 0.84

Q: With LCAREFVDCEAILVRLWFVY as the substance, how does the amyloid nucleation score read?
A: -1.18 ± 1.1

Q: For YTEIMGL, which amyloid nucleation score is on record?
A: -0.046 ± 0.31

Q: For YFLTHRTGRYNMGDSSVRTL, which amyloid nucleation score is on record?
A: -0.319 ± 0.38

Q: Which amyloid nucleation score does the source give for INDYMLYGVLAYILGHGTVQ here?
A: 0.622 ± 0.49

Q: With GCLAPLLIDLCCFQMRNSSN as the substance, how does the amyloid nucleation score read?
A: 0.05 ± 0.49

Q: Which amyloid nucleation score does the source give for NYFFAAACKKVVQGQPCSF here?
A: 1.59 ± 0.29

Q: Which amyloid nucleation score does the source give for YGQIPTFHRRSQVHLCNRIW here?
A: 0.206 ± 1.6

Q: With WTVLGYFRALQASLRASAGM as the substance, how does the amyloid nucleation score read?
A: 0.099 ± 0.71

Q: For YVIRFVKCR, which amyloid nucleation score is on record?
A: 2.23 ± 0.55

Q: With WIFSAMVYDSRKLTSYDKSE as the substance, how does the amyloid nucleation score read?
A: 0.543 ± 0.32

Q: For TSGSGINITL, which amyloid nucleation score is on record?
A: inactive

Q: For LWYKIGFLIWSRTGTLYQGI, which amyloid nucleation score is on record?
A: 0.273 ± 0.3

Q: Which amyloid nucleation score does the source give for ELYPGF here?
A: -0.219 ± 1.2

Q: With TPANNVRISFIWFL as the substance, how does the amyloid nucleation score read?
A: 3.54 ± 0.064

Q: For FMLVAG, which amyloid nucleation score is on record?
A: 0.746 ± 0.53

Q: Which amyloid nucleation score does the source give for NLSGRSLSRLIDLFNRFTC here?
A: 0.919 ± 0.29

Q: For TGLYSYIGFSDGYCVYEMIT, which amyloid nucleation score is on record?
A: -0.122 ± 1.6

Q: For NVTNQCMLW, which amyloid nucleation score is on record?
A: 0.509 ± 0.33

Q: With WLVLHTNLMLGCSTRSMLCA as the substance, how does the amyloid nucleation score read?
A: 0.174 ± 0.5

Q: Which amyloid nucleation score does the source give for NWYYRWELFVACFYLYSGWE here?
A: inactive

Q: With DFRAIS as the substance, how does the amyloid nucleation score read?
A: 0.576 ± 0.79

Q: With TKDGIT as the substance, how does the amyloid nucleation score read?
A: 0.305 ± 0.97

Q: For KNFYDIKPLYALYSENLRLH, which amyloid nucleation score is on record?
A: 0 ± 0.46

Q: Which amyloid nucleation score does the source give for DFARQSSHPETWSSGDLSHS here?
A: 0.239 ± 0.96

Q: With FICQDVNICCSL as the substance, how does the amyloid nucleation score read?
A: 7.305 ± 0.052

Q: For MTALFGRVSG, which amyloid nucleation score is on record?
A: -0.134 ± 1.1

Q: With LKGHLHDSILQCRHKALFF as the substance, how does the amyloid nucleation score read?
A: 0.922 ± 0.75

Q: For YVMAESSASNDQAVGNWRGR, which amyloid nucleation score is on record?
A: -0.643 ± 0.97

Q: Which amyloid nucleation score does the source give for NIGMGSTLFLGRMSEQCWCS here?
A: 2.32 ± 0.14

Q: Which amyloid nucleation score does the source give for TCLCD here?
A: 1.52 ± 0.46

Q: For RAMVLCGGCTWPAREDNEKV, which amyloid nucleation score is on record?
A: 0.506 ± 0.33

Q: For CTIWPSQDGRGCTLCGSRL, which amyloid nucleation score is on record?
A: 0.348 ± 0.75

Q: Which amyloid nucleation score does the source give for KWLLTDDLRSGISAWWECPL here?
A: -0.233 ± 0.62

Q: For HYDLWCLMFFLVSMMSVNCH, which amyloid nucleation score is on record?
A: 0.972 ± 0.54

Q: For PNTLYSLTIIMSARLNSSLL, which amyloid nucleation score is on record?
A: 0.371 ± 0.57

Q: With AWGRLAGYRRGSWMYYCCNS as the substance, how does the amyloid nucleation score read?
A: 0.435 ± 0.82

Q: For YGGMDS, which amyloid nucleation score is on record?
A: 0.132 ± 0.5

Q: For FWEYSSRNPQSHYTVLRSKV, which amyloid nucleation score is on record?
A: -0.509 ± 0.32

Q: Which amyloid nucleation score does the source give for ALRNCQNMRPYKTPVRPTVA here?
A: 1.34 ± 0.71

Q: For IVIFPFFLVISDLYVVVSLG, which amyloid nucleation score is on record?
A: -0.077 ± 0.53

Q: Which amyloid nucleation score does the source give for CLEVFKNGCRNLRTGRVINR here?
A: 1.03 ± 0.9

Q: For ACGRLFDYVAFHRLLDQTHW, which amyloid nucleation score is on record?
A: -0.617 ± 0.65

Q: For GCVVI, which amyloid nucleation score is on record?
A: 0.258 ± 0.26

Q: Which amyloid nucleation score does the source give for NSHDKVGVSILWTGRSRLVA here?
A: -0.003 ± 0.45

Q: Which amyloid nucleation score does the source give for EKFGRRCCSFGRSVSEWVTK here?
A: 0.999 ± 0.66

Q: For SVGGWLSYRSDV, which amyloid nucleation score is on record?
A: -0.901 ± 0.89

Q: Which amyloid nucleation score does the source give for GWYSFLPSRNYFK here?
A: 4.92 ± 0.072
